Measurements published in US6861399B2, “Cleaning compositions containing human serine protease T” (Ortho-McNeil Pharmaceutical , Inc., priority 1999, dated 2005).
Non-standard residues stand in square brackets, D forms with d. *: point of attachment. pNA = O=[N+]([O-])c1ccc(N*)cc1; HHT = not defined here

Target: T1, activated protease T-HA6×HIS (Homo sapiens, UniProt Q9BQR3, D40A/M35I/Q39Y/Q42E/T41L)
T1 construct: made in house; host or cells: Sf9 insect cells (baculovirus)
Assay: Amidolytic activity of activated protease T on chromogenic pNA substrates
Assay type: biochemical
Details: substrate at 500 uM; 10 mM Tris-HCl pH 7.8, 25 mM NaCl, 25 mM imidazole; pNA release over 120 minutes at 37° C., 405 nm; N.A. = No Activity
Method: The conditioned medium from infected Sf9 cells was used to purify secreted recombinant PFEK-protease T-HA6×HIS zymogen. The medium was concentrated 5 to 10 fold using a Centriprep concentrator (Amicon Inc., Beverly, Mass.). 150 μl of a 50% Ni-NTA slurry (Qiagen, Valencia, Calif.) was added to 5 to 10 ml of the concentrated medium and mixed by shaking at 4° C. for 60 minutes. The zymogen-bound resin was washed 3 times with 1.5 ml of wash buffer (10 mM Tris-HCl (pH 8.0), 300 mM NaCl, and 15 mM imidazole), followed by with a 1.5 ml wash with ds H2O. Enterokinase cleavage was carried out by adding enterokinase (Novagen, Inc., Madison Wis.; or Sigma, St. Louis, Mo.) to the zymogen-bound Ni-NTA beads in a 150 ul volume at room temperature overnight with gentle shaking in a buffer containing 20 mM Tris-HCl (pH 7.4), 50 mM NaCl, and 2.0 mM CaCl2. The resin was then washed twice with 1.5 ml wash buffer. The activated protease T-HA6×HIS was eluted with elution buffer (20 mM Tris-HCl (pH 7.8), 250 mM NaCl, and 250 mM imidazole). Eluted protein concentration was determined by a Micro BCA Kit (Pierce, Rockford, Ill.) using bovine serum albumin as a standard. Amidolytic activities of the activated protease T-HA6×HIS was monitored by release of para-nitroaniline (pNA) from the synthetic substrates indicated in Table 1 and FIG. 6. […] Release of pNA was measured over 120 minutes at 37° C. on a micro-plate reader (Molecular Devices, Menlo Park, Calif.) with a 405 nm absorbance filter. The initial reaction rates (Vmax, mOD/min) were determined from plots of absorbance versus time using Softmax (Molecular Devices, Menlo Park, Calif.). […]
Amidolytic activities of the activated serine proteases are monitored by release of para-nitroaniline (pNA) from synthetic substrates that are commercially available (Bachem California Inc., Torrance, […].; American Diagnostica Inc., Greenwich, Conn.; Kabi Pharmacia Hepar Inc., Franklin, Ohio). […] Release of pNA is measured over 120 min at 37° C. on a micro-plate reader (Molecular Devices, Menlo Park, Calif.) with a 405 nm absorbance filter. […]

T1 sequence (Q9BQR3 35-290 M35I/Q39Y/D40A/T41L/Q42E limits assumed): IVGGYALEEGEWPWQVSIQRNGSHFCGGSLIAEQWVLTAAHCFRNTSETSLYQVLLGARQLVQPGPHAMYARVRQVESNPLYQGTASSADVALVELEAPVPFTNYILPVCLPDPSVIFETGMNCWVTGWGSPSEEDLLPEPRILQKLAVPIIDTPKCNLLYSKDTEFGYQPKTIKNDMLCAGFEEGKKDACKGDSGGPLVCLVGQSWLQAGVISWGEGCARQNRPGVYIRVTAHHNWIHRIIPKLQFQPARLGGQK

Substance	Specific Activity
H-D-Lys(CBO)-Pro-Arg-pNA (H-[dK](CBO)-Pro-Arg-pNA) [commercially available chromogenic substrate]	0.057 ± 0.022 nmole pNA produced/min/μg protein
H-D-Pro-HHT-Arg-pNA (H-[dP]-[HHT]-Arg-pNA; reading uncertain; also: printed as H-D-Pro-HHT-Arg-pNA) [commercially available chromogenic substrate]	0.010 ± 0.000 nmole pNA produced/min/μg protein
H-DL-Val-Leu-Arg-pNA (H-Val-Leu-Arg-pNA; also: DL-Val (racemic) at 1) [commercially available chromogenic substrate]	0.016 ± 0.003 nmole pNA produced/min/μg protein
